Patent US20260263638A1, “COMPOSITIONS AND METHODS TO IMPROVE RNA PROPERTIES USING BASE, PHOSPHODIESTER LINKAGE, SUGAR BACKBONE, AND CAP MODIFICATIONS” (The Broad Institute, Inc., priority 2023, published 2026)

Key:
HeLa cells = assay: Time-course dual luciferase assay of modified Firefly luciferase mRNA (Renilla control); assay type: cell-based; details: from 8~72 hours
reticulocytes = assay: Plasma reticulocyte counting by flow cytometry; assay type: in vivo; details: mice; day 6 post-administration
Protocol: (§1) mRNA diluted in 50 mM citrate buffer (pH 4) and lipid mix (37.5 mM in ethanol) containing 50 mol % SM-102, 10 mol % DSPC, 38.5 mol % Cholesterol, and 1.5 mol % DMG-PEG2000 were assembled into LNP using a NanoAssemblr Spark instrument [Precision Nanosystems]. Upon formulation, mRNA-LNPs were diluted in 12 mL 1×PBS solution and the buffer was exchanged by concentrating with a 30 kDa spin filter [MilliporeSigma, UFC901008] to remove residue ethanol. Concentrations and encapsulation efficiency of mRNA were determined using Quant-it RiboGreen RNA Assay Kit [ThermoFisher, R11490]. 1 μg NanoLuc or hEPO mRNA-LNP in a total volume of 100 μL was injected through retro orbital injection into each mouse. Four mice were used for each condition of each experiment (NanoLuc imaging, hEPO ELISA, and reticulocyte counting). For NanoLuc imaging, PBS injection was used as negative control. For hEPO/reticulocyte experiments, poly(C)-LNP complex was used as negative control.
10 μL […] sample was added into 1 mL of the Reticulocyte Reagent [BD Bioscience] at the indicated time points and the mixture was incubated at room temperature for 30 minutes with protection from light. The samples were analyzed with Beckman CytoFLEX LX Flow Cytometer with 100,000-event records for each sample. Thiazole orange positive cells are defined as reticulocytes.

[1] = Quantification of plasma hEPO by ELISA after mRNA-LNP injection; assay type: in vivo; details: mice, hEPO mRNA-LNP retro-orbital
Protocol: All animal procedures followed animal care guidelines approved by the Institutional Animal Care and Use Committee (IACUC) of the Broad Institute of MIT and Harvard under animal protocol #0255-08-19. Animal experiments were conducted in compliance with IACUC policies and NIH guidelines. The BALB/cj (male, 6~8 weeks old) mice used for in vivo NanoLuc assay in this study were purchased from The Jackson Laboratory (JAX). The C57BL/6 mice (female, 7 weeks old), used for hEPO assay in this study were purchased from The Jackson Laboratory (JAX).
as §1
At the indicated time points, approximately 100 μL of blood was collected with EDTA-coated capillary tubes from each mouse and then transferred to an EDTA-coated tube. The collected blood samples were centrifuged at 2000 g for 10 min, followed by transferring the resulting plasma into another tube. The hEPO levels in the plasma samples were measured by Human Erythropoietin (EPO) ELISA kit [LEGEND MAX, 442907]. Final concentrations for hEPO were adjusted based on the volume and dilution fold.

[2] = system: plasma alanine transaminase (ALT); assay: In vivo toxicity assay: plasma ALT ELISA; details: mice; hEPO mRNA-LNP groups
Protocol: (§2) To evaluate the in vivo toxicity and immune response, plasma collected on day 7 post mRNA-LNP administration for the hEPO group. ALT and TNF-alpha were measured using ELISA kits for ALT [G-Biosciences, IT5508] and TNF-alpha [R&D Systems, MTA00B] per manufacturer's protocols.

[3] = system: plasma tumor necrosis factor alpha (TNF-α); parameters: species or system mice; details: mouse, in vivo
Protocol: as §2

eIF3A (Homo sapiens) = assay: pulldown; details: LNA-m7G cap; LNA at position 1; 2'-OMe at next 5 bases; 3'-biotin; SILAC MS, vs m7G cap-0 oligo; may be indirect
CASC3 (Homo sapiens) = assay: pulldown; details: LNA-m7G cap; LNA at position 1; 2'-OMe at next 5 bases; 3'-biotin; SILAC MS, vs m7G cap-0 oligo
eIF4A1 (Homo sapiens) = assay: pulldown; details: LNA-m7G cap; LNA at position 1; 2'-OMe at next 5 bases; 3'-biotin; SILAC MS, vs m7G cap-0 oligo; may be indirect
DHX15 (Homo sapiens) = assay: pulldown; details: LNA-m7G cap; LNA at position 1; 2'-OMe at next 5 bases; 3'-biotin; SILAC MS, vs m7G cap-0 oligo
PARN (Homo sapiens) = assay: pulldown; details: LNA-m7G cap; LNA at position 1; 2'-OMe at next 5 bases; 3'-biotin; SILAC MS, vs m7G cap-0 oligo
eIF4G1 (Homo sapiens) = assay: pulldown; details: LNA-m7G cap; LNA at position 1; 2'-OMe at next 5 bases; 3'-biotin; SILAC MS, vs m7G cap-0 oligo; may be indirect via eIF4E
eIF4E (Homo sapiens) = assay: pulldown; details: LNA-m7G cap; LNA at position 1; 2'-OMe at next 5 bases; 3'-biotin; SILAC MS, vs m7G cap-0 oligo; HEK293T lysate
PABPC4 (Homo sapiens) = assay: pulldown; details: LNA-m7G cap; LNA at position 1; 2'-OMe at next 5 bases; 3'-biotin; SILAC MS, vs m7G cap-0 oligo; may be indirect
NCBP1 (Homo sapiens) = assay: pulldown; details: LNA-m7G cap; LNA at position 1; 2'-OMe at next 5 bases; 3'-biotin; SILAC MS, vs m7G cap-0 oligo
eIF4G3 (Homo sapiens) = assay: pulldown; details: LNA-m7G cap; LNA at position 1; 2'-OMe at next 5 bases; 3'-biotin; SILAC MS, vs m7G cap-0 oligo; may be indirect
eIF2B (Homo sapiens) = assay: pulldown; details: LNA-m7G cap; LNA at position 1; 2'-OMe at next 5 bases; 3'-biotin; SILAC MS, vs m7G cap-0 oligo
XRN2 (Homo sapiens) = assay: pulldown; details: LNA-m7G cap; LNA at position 1; 2'-OMe at next 5 bases; 3'-biotin; SILAC MS, vs m7G cap-0 oligo
PABPC1 (Homo sapiens) = assay: pulldown; details: LNA-m7G cap; LNA at position 1; 2'-OMe at next 5 bases; 3'-biotin; SILAC MS, vs m7G cap-0 oligo; may be indirect
[4] = biological target: tRNA guanine transglycosylase (TGT) (UniProt P0A847 P0A847:1-375); assay: site-specific preQ1-azide labeling of hairpin in circRNA; 20 mM MgCl2, pH 7.3, 37 C; details: tags: His tag, expressed in E. coli
Protocol: CircRNA bearing a TGT hairpin was synthesized as described above. TGT enzyme was expressed in E. Coli as previously described in Alexander et al. “Site-specific covalent labeling of RNA by enzymatic transglycosylation.” J. Am. Chem. Soc. […] To label the circRNA with preQ1-azide, 1 μM of circRNA, 100 µM of preQ1-azide, 10 μM of TGT, 10 μL of SUPERase-In RNase inhibitor were incubated in 1× TGT reaction buffer (100 mM HEPES, pH 7.3, 5 mM DTT, and 20 mM MgCl₂) in a total of 100 μL reaction at 37° C. for 2 hours. The labeled circRNA was purified and subjected to click reaction with Bn7G-capped alkyne labeled oligo using the general condition for click reaction for 30 mins. The circRNA was then subjected to RP-HPLC purification to remove the linearized portions (method 3), pooled and desalted, and subjected to another round of RP-HPLC purification to isolate the QRNA product (method 4). QRNA product was characterized by RNase H assay with 2 primers upstream/downstream the TGT site.

eIF4E = eIF4E (UniProt P06730 P06730:1-217); assay: EMSA; 50 mM KCl, 10 mM Tris-HCl pH 7.6, 4 C; confirmed by competitive EMSA against mono-capped (FIG. 9H); details: tags: His tag; Cayman Chemical 25150; label: AF647-cytidine; branched
Protocol: Capped oligonucleotides were labeled on the 3′ end using AF647 labeled cytidine-5′-phosphate-3′-(6-aminohexyl) phosphate [Jena Bioscience, NU-1706-AF647] and T4 RNA ligase ligated AF647-labeled cytidine onto the capped oligos using manufacturer's protocols. Oligos were then incubated in the binding buffer (1 mM DTT, 50 mM KCl, 10 mM Tris-HCl (pH 7.6), Novex Hi-Density TBE Sample Buffer [Invitrogen, LC6678]) with varying eIF4E-His [Cayman Chemical Inc, 25150] concentrations prepared by sequential dilutions from the stock solution. The oligos and […] were incubated at 4° C. for 30 mins and characterized by EMSA with Novex TBE Gels, 4-20% [Invitrogen, EC6225BOX] at 4° C. AF647 labeled oligos were imaged with BioRad ChemiDoc MP Imaging System [12003154] and band intensities were quantified using ImageJ. For Kd calculation, the proportions of bound were plotted against eIF4E concentration using GraphPad Prism (Specific binding with Hill slope).
To gain insights into the mechanism of how the topologically branched internal cap initiates mRNA translation, Applicant used fluorophore-labeled mono- or dual-capped oligonucleotides and measured their affinity to eIF4E through EMSA.

tRNA guanine transglycosylase (TGT), sequence (P0A847 whole entry, one chain of several): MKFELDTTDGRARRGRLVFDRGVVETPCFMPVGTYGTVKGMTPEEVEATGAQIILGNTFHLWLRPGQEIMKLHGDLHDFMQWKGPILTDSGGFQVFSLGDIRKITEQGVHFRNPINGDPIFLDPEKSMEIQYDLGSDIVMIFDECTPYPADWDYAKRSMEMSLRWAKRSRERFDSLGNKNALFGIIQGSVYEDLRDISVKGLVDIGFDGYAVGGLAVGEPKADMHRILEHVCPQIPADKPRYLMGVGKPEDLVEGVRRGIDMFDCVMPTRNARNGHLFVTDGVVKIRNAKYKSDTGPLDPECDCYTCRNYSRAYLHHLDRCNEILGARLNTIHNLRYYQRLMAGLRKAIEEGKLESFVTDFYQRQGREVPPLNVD
eIF4E, sequence (P06730 whole entry, one chain of several): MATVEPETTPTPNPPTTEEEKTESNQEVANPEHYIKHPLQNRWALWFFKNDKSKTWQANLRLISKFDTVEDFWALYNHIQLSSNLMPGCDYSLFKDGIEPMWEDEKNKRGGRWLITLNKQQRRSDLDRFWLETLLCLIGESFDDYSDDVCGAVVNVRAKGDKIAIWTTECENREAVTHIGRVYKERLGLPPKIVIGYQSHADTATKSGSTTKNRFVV

construct 39: two LNAm7G caps; /5Phos/+AmGmAmGmAmUrArA/3AzideN/ clicked to /5Phos/+AmGmAmUmAmArA/i50CTdU/rArArArArArA (SEQ ID NO: 50) (AGATAAATAAAAAA; two LNA-m7G caps; branched click linkage; 2'-OMe; modified_base 1 OTHER; 5'-phosphate modified Locked nucleic acid; modified_base 2 OTHER; 2'-O-methyl modified nucleotide; modified_base 3 OTHER; modified_base 4 OTHER; modified_base 5 OTHER; modified_base 6 OTHER; modified_base 8 OTHER; 5-Octadiynyl modified uracil; m)
Protein expression boost vs conventional linear mRNA with only m7G-rG cap and m1Ψ (HeLa cells): 5.5~99 fold

construct S20: hEPO mRNA, two LNAm7G caps, LNA-2OMe 5′ UTR, PS-2MOE_ddC tail, in LNP (SEQ ID NO: 137) (AGATAAATAAAAAA; mRNA with two LNA-m7G caps, LNA/2'-OMe UTR, PS-MOE ddC tail, in LNP, further chemistry not given here)
Increase in reticulocyte counts compared to poly(C)-LNP-treated group (reticulocytes): 64% | Reticulocytes, % of total red blood cells (reticulocytes): 6.4±0.2% | Plasma hEPO expression remained detectable until [1]: 6 days | Time of peak plasma hEPO expression [1]: 6 h | Peak plasma hEPO expression ([1]; 6 hours): 6009±578 mlU/mL | Plasma ALT (toxicity) [2]: No significant changes | Plasma TNF-α (immunogenicity) [3]: No significant changes

SILAC modified 20-nt oligo
binding signal (fold enrichment) (eIF3A (Homo sapiens)): 5.8 | binding signal (fold enrichment) (CASC3 (Homo sapiens)): 5.4 | binding signal (fold enrichment) (eIF4A1 (Homo sapiens)): 2.5 | binding signal (fold repulsion) (DHX15 (Homo sapiens)): 15.1 | binding signal (fold enrichment) (PARN (Homo sapiens)): 8 | binding signal (fold enrichment) (eIF4G1 (Homo sapiens)): 42.1 | binding signal (fold enrichment) (eIF4E (Homo sapiens)): 15.2 | binding signal (fold enrichment) (PABPC4 (Homo sapiens)): 5.5 | binding signal (fold repulsion) (NCBP1 (Homo sapiens)): 32.8 | binding signal (fold enrichment) (eIF4G3 (Homo sapiens)): 27.9 | binding signal (fold repulsion) (eIF2B (Homo sapiens)): 5.1 | binding signal (fold enrichment) (XRN2 (Homo sapiens)): 10.2 | binding signal (fold enrichment) (PABPC1 (Homo sapiens)): 5.5

GCAGACUGUAAAUCUGC (ssRNA) [TGT recognition hairpin]
binding result [4]: binds

B1: 2xm7G dual-capped branched (31) (ssRNA)
RNA 1: AGAUAAAUAAAAAA
RNA 2: AGAGAUAA
modifications: m7G cap on both 5' ends; second strand 3'-azide clicked to 5-octadiynyl-dU at position 8 of first strand
Kd (eIF4E): 1410 nM
